Laboratory results reported in patent publication US20240400722A1 (MILTENYI BIOTEC B V, published 2024).
Changes are numbered by the printed parent chain. Names may count otherwise.

B1: His tag-acVHH-WT anti-caffeine nanobody, soluble (VHH)
VHH: QVQLVESGGGLVQAGGSLRLSCTASGRTGTIYSMAWFRQAPGKEREFLATVGWSSGITYYMDSVKGRFTISRDKGKNTVYLQMDSLKPEDTAVYYCTATRAYSVGYDYWGQGTQVTVSS
notes: Expressed in E. coli; also called AB0; not shown: His tag
B2: M1 ΔAA displayed on yeast (VHH, not shown: large carriers; small tags and cut ends)
chain: B1 VHH with C22A, T50P, G52A, W53L, S54G, S55L, G56Q, I57S, C96A
notes: also called acVHH-M1 C22A C96A
B3: M1 ΔWA displayed on yeast (VHH, not shown: large carriers; small tags and cut ends)
chain: B1 VHH with C22W, T50P, G52A, W53L, S54G, S55L, G56Q, I57S, C96A
notes: also called acVHH-M1 C22W C96A
B4: M1 ΔAW displayed on yeast (VHH, not shown: large carriers; small tags and cut ends)
chain: B1 VHH with C22A, T50P, G52A, W53L, S54G, S55L, G56Q, I57S, C96W
notes: also called acVHH-M1 C22A C96W
B5: M1 ΔVA displayed on yeast (VHH, not shown: large carriers; small tags and cut ends)
chain: B1 VHH with C22V, T50P, G52A, W53L, S54G, S55L, G56Q, I57S, C96A
notes: also called acVHH-M1 C22V C96A
B6: M1 ΔFA displayed on yeast (VHH, not shown: large carriers; small tags and cut ends)
chain: B1 VHH with C22F, T50P, G52A, W53L, S54G, S55L, G56Q, I57S, C96A
notes: also called acVHH-M1 C22F C96A
B7: His tag-acVHH-V104D, soluble (VHH, not shown: small tags and cut ends)
VHH: B1 VHH with V104D
notes: also called AB1; Tag-V104D
B8: M1 ΔAV displayed on yeast (VHH, not shown: large carriers; small tags and cut ends)
chain: B1 VHH with C22A, T50P, G52A, W53L, S54G, S55L, G56Q, I57S, C96V
notes: also called acVHH-M1 C22A C96V
B9: M1 ΔGW displayed on yeast (VHH, not shown: large carriers; small tags and cut ends)
chain: B1 VHH with C22G, T50P, G52A, W53L, S54G, S55L, G56Q, I57S, C96W
notes: also called acVHH-M1 C22G C96W
B10: M1 ΔWP displayed on yeast (VHH, not shown: large carriers; small tags and cut ends)
chain: B1 VHH with C22W, T50P, G52A, W53L, S54G, S55L, G56Q, I57S, C96P
notes: also called acVHH-M1 C22W C96P
B11: acVHH-V104D displayed on yeast (Aga2p-HA-tag-(Gly4Ser)3 linker-acVHH-V104D-c-myc tag) (VHH, not shown: large carriers; small tags and cut ends)
VHH: B1 VHH with V104D

Columns and labels:
[1] = target: T1, acVHH-WT displayed on yeast (Aga2p-HA-tag-(Gly4Ser)3 linker-acVHH-WT-c-myc tag); assay: yeast surface display; 400 nM soluble acVHH-WT, caffeine titrated (data of FIG. 3I); mean ± S.D.
T1 construct: Yeast surface display fusion on S. cerevisiae EBY100
T1 sequence (chain, as listed by the source): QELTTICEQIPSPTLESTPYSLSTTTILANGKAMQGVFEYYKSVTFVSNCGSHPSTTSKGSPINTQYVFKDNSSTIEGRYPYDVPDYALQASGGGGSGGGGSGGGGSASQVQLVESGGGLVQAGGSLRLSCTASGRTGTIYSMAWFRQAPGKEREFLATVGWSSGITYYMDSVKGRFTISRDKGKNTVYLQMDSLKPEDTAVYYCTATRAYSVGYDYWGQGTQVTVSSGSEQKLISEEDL
Source text: (§1) Measured with yeast display and normalized to maximum binding signal (n=3, averages±standard deviations).

[2] = target: B7; assay: yeast surface display, flow cytometry (n=1)
[3] = target: T1, acVHH-WT displayed on yeast …; assay: yeast surface display, flow cytometry; soluble acVHH-V104D with 10 µM compound or without
Protocol: Expression of the acVHH variants on yeast was induced by culturing the cells in SG-CAA medium (20 g/L galactose, 2 g/L glucose, 6.7 g/L yeast nitrogen base, 5 g/L bacto casamino acids, 10.2 g/L Na₂HPO₄*7 H₂O, 8.56 g/L NaH₂PO₄*H₂O) overnight at 20° C. and 180 rpm. Detection of full-length proteins on the surface of the cells was carried out by staining the cells with anti-c-myc AlexaFluor 488 (9E10, Thermo Fisher).

[4] = target: B11; assay: yeast surface display, flow cytometry; soluble acVHH-V104D with and without 10 µM caffeine
Protocol: (§2) The staining for flow cytometry characterization was performed in PBSA (PBS containing 15 μM bovine serum albumin). […] After a final washing step, the cells were analyzed with a CytoFLEX S flow cytometer (Beckman Coulter).

[5] = target: B8; assay: yeast surface display, flow cytometry; soluble acVHH-V104D with and without 10 µM caffeine (n=1)
[6] = target: B4; assay: as above
[7] = target: B6; assay: as above
[8] = target: B9; assay: as above
[9] = target: B5; assay: as above
[10] = target: B3; assay: as above
[11] = target: B10; assay: as above
[12] = target: B2; assay: as above
[13] = target: T2, acVHH-M1 displayed on yeast (Aga2p-HA-tag-(Gly4Ser)3 linker-acVHH-M1-c-myc tag); assay: yeast surface display; 400 nM soluble acVHH-V104D, caffeine titrated (data of FIG. 3I); mean ± S.D.
T2 construct: also called AB2
Protocol: (§3) Expression of the variants on yeast was carried out in SG-CAA as described above.
as §1

[14] = target: T3, dfM1-1 displayed on yeast (Aga2p-HA-tag-(Gly4Ser)3 linker-dfM1-1-c-myc tag); assay: as above
T3 construct: also called disulfide free M1 variant
Protocol: as §3, §1

[15] = target: T4, dfM1-2 displayed on yeast (Aga2p-HA-tag-(Gly4Ser)3 linker-dfM1-2-c-myc tag); assay: as above
T4 construct: also called disulfide free M1 variant
Protocol: as §3, §1

[16] = target: T2, acVHH-M1 displayed on yeast …; assay: yeast surface display titration with soluble acVHH-V104D, 30 µM caffeine, signal normalised to the maximum
[17] = target: T3, dfM1-1 displayed on yeast …; assay: as above
[18] = target: T4, dfM1-2 displayed on yeast …; assay: as above
[19] = target: T2, acVHH-M1 displayed on yeast …; assay: yeast surface display titration with soluble acVHH-V104D, + caffeine (30 µM, data of FIG. 3H); mean ± S.D.
[20] = target: T3, dfM1-1 displayed on yeast …; assay: as above
[21] = target: T4, dfM1-2 displayed on yeast …; assay: as above
[22] = target: B7; assay: yeast surface display, flow cytometry
Protocol: as §2

## B1
[1]
  EC50,YSD (caffeine concentration for half-maximal dimerisation): 4300 nM

## B2
[2]
  binding result: no binding

## B3
[2]
  binding result: no binding

## B4
[2]
  binding result: no binding

## B5
[2]
  binding result: no binding

## B6
[2]
  binding result: no binding

## B7
[3]
  binding result: no binding (tested: 500 nM)
[4]
  binding result: no binding (tested: 500 nM)
[5]
  binding result: no binding (tested: 500 nM)
[6]
  binding result: no binding (tested: 500 nM)
[7]
  binding result: no binding (tested: 500 nM)
[8]
  binding result: no binding (tested: 500 nM)
[9]
  binding result: no binding (tested: 500 nM)
[10]
  binding result: no binding (tested: 500 nM)
[11]
  binding result: no binding (tested: 500 nM)
[12]
  binding result: no binding (tested: 500 nM)
[13]
  EC50,YSD (caffeine concentration for half-maximal dimerisation): 104000 nM
[14]
  EC50,YSD (caffeine concentration for half-maximal dimerisation): 83000 nM
[15]
  EC50,YSD (caffeine concentration for half-maximal dimerisation): 124000 nM
[16]
  EC50 (read off the curve): ~30 nM
[17]
  EC50 (read off the curve): ~20 nM
[18]
  EC50 (read off the curve): ~20 nM
[19]
  Kd: 30 nM
[20]
  Kd: 18.8 nM
[21]
  Kd: 21.8 nM

## B8
[2]
  binding result: no binding

## B9
[2]
  binding result: no binding

## B10
[2]
  binding result: no binding

## B11
[22]
  binding result: no binding
